Target: T1, full-length wild-type human OX2R (pCDNA3, HEK293) (human) (UniProt O43614)
T1 sequence: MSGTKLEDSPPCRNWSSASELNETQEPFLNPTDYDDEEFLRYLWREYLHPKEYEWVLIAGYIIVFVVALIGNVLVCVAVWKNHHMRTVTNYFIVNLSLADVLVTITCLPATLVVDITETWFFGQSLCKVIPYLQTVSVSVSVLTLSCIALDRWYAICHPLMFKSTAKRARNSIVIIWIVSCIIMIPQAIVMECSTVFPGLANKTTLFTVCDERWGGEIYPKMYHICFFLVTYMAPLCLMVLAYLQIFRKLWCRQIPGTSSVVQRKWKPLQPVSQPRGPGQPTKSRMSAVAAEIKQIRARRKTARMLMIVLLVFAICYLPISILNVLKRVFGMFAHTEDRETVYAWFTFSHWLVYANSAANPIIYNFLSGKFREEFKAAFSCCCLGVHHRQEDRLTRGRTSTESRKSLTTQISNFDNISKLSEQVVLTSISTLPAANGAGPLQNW

orexin B, sequence (O43612 70-97): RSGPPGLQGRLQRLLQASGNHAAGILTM

## orexin B (from UniProt O43612 70-97) (peptide)
  Gq-mediated inositol phosphate (IP) accumulation in HEK293 cells transfected with OX2R and Gαq; EC50 of orexin B: 8.2 nM
